Laboratory results taken from patent US20240166688.

Biological target: T1, peptide of SEQ ID NO: 1
T1 chain: GKCSTRGRKCCRRKK

B1: HDAC5 in RAW 264.7 cells (protein)
chain: MNSPNESDGMSGREPSLGILPRTPLHSIPVAVEVKPVLPGAMPSSMGGGGGGSPSPVELRGALAGPMDPALREQQLQQELLVLKQQQQLQKQLLFAEFQKQHDHLTRQHEVQLQKHLKQQQEMLAAKRQQELEQQRQREQQRQEELEKQRLEQQLLILRNKEKSKESAIASTEVKLRLQEFLLSKSKEPTPGGLNHSLPQHPKCWGAHHASLDQSSPPQSGPPGTPPSYKLPLLGPYDSRDDFPLRKTASEPNLKVRSRLKQKVAERRSSPLLRRKDGTVISTFKKRAVEITGTGPGVSSVCNSAPGSGPSSPNSSHSTIAENGFTGSVPNIPTEMIPQHRALPLDSSPNQFSLYTSPSLPNISLGLQATVTVTNSHLTASPKLSTQQEAERQALQSLRQGGTLTGKFMSTSSIPGCLLGVALEGDTSPHGHASLLQHVCSWTGRQQSTLIAVPLHGQSPLVTGERVATSMRTVGKLPRHRPLSRTQSSPLPQSPQALQQLVMQQQHQQFLEKQKQQQMQLGKILTKTGELSRQPTTHPEETEEELTEQQEALLGEGALTIPREGSTESESTQEDLEEEEEEEEEEEEDCIQVKDEDGESGPDEGPDLEESSAGYKKLFADAQQLQPLQVYQAPLSLATVPHQALGRTQSSPAAPGSMKSPTDQPTVVKHLFTTGVVYDTFMLKHQCMCGNTHVHPEHAGRIQSIWSRLQETGLLGKCERIRGRKATLDEIQTVHSEYHTLLYGTSPLNRQKLDSKKLLGPISQKMYAMLPCGGIGVDSDTVWNEMHSSSAVRMAVGCLVELAFKVAAGELKNGFAIIRPPGHHAEESTAMGFCFFNSVAITAKLLQQKLSVGKVLIVDWDIHHGNGTQQAFYNDPSVLYISLHRYDNGNFFPGSGAPEEVGGGPGVGYNVNVAWTGGVDPPIGDVEYLTAFRTVVMPIAQEFSPDVVLVSAGFDAVEGHLSPLGGYSVTARCFGHLTRQLMTLAGGRVVLALEGGHDLTAICDASEACVSALLSVELQPLDEAVLQQKPSVNAVATLEKVIEIQSKHWSCVQRFAAGLGCSLREAQTGEKEEAETVSAMALLSVGAEQAQAVATQEHSPRPAEEPMEQEPAL
Phosphorylation ratio (Phospho explorer antibody microarray, peptide + LPS against LPS alone): phosphorylation of HDAC5 was inhibited the most (0.278)
